# Measured values as given in the supplement of paper PMC9170038.
# Tested on: K4 kissing-loop RNA reporter
# Assay: apparent KD of K4 kissing-loop reporter; higher = weaker reporter binding
# Details: Eterna round: R107
# Method: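 RNA-MaP round R107: designed RNA switches with theophylline, tryptophan, arginine or FMN aptamers are transcribed on-chip within common flanks. They are titrated with a labelled K4 kissing-loop RNA reporter in RNA-MaP buffer (100 mM Tris pH 7.5, 80 mM KCl, 4 mM MgCl2), without ligand or with the indicated ligand. Median apparent KD per design.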
# [1] = input ligand: theophylline 20 uM
# [2] = input ligand: tryptophan 2.4 mM
# 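Further: bound reporter read as fluorescence of individual clusters on recovered sequencing chips by microscopy, with normalized cluster intensities fitted with a binding model.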
Sequence,apparent KD of K4 kissing-loop reporter (input ligand: FMN 200 uM) [nM],apparent KD of K4 kissing-loop reporter (input ligand: arginine 13.2 mM) [nM],apparent KD of K4 kissing-loop reporter (input ligand: none) [nM],apparent KD of K4 kissing-loop reporter [1] [nM],apparent KD of K4 kissing-loop reporter [2] [nM]
UGCAUCGUUGGCAGGCGCACCACACAGUGUAAGGAUAUGAUGUCGUUCAGAAGGUACGCUUGACCGAGUGAUGUUCGGGAGUGCC [theeternabot_sameState_KL_FMN_A_9],224,200,218,245,196
UGAUAGGACAGAAGGAGCGGAAGUGAUGUUUCCAAAAGAUAUGGUCGACAAAGUCGACUUUUCCAGGUAGGUCGCUGUCCUAUCU [KL-XARG-B18],60.4,90.1,67.1,84.1,66.6
AAACAUCACUGGGAGUGAUGUUCUCAGUGACGAGGACCGGUACGGCCGCCACUCGCGAGAGAUAUAGUUAAGUAAUGACUGCAUU [Excl Tryptophan A V7],324,251,294,333,324
AAUUCCUGUUAUGAUACCAGAAAUCACAGCAACCUGCCUACCUAGUGAUGUUAGGAGAAUUUCCCUUGGCAGCAUCGACUGAAGG [theeternabot_sameState_KL_Theo_B_38],147,173,145,151,124
AAAGAUCUUCUAGAAACUAGAAGAUCAAGAGAGGAUAUCCGAAUUCGGAGAAGGCUCACUAAGUGAUGUUUGGAGCCAAUGGCAA [AK2 SS FMN A],1060,1100,1210,1090,932
GGCCGGAAGGCGGCCGCCACUCAGUGAUGUUGUGUGAAAGAAAAGAAAAGAAGAAAGAAAAGAAAGAGGACCGGGCCAAACGGCC,257,224,504,643,580
GUAGACAGACUGCAAGCCUAGUCUACAGACUAGGAUAUCAGGAAACUGAGAAGGAGUCUACUUGCAGUGAUGUUGCAAGAAUAAU [[F]''-[K]'-[F]'-[F1]-[F2]-[K1]-[K2]_Design4],146,126,121,111,119
AGAUUCGACACGGCCGCCACUCGUGGUGGAUUACCGAGUGUCGAAGUUGAGUGAUGUUCAAGUACGAGGACCGGGUGUUGAGUCU [KL-XTryp-B9 #analogue],193,204,198,163,435
UGUGUUUACCUGACUCAGUGAUGUUGAGAAGGAGCGUGCGAAAGCACAGGUAGGUCGCUCAAUCCUUAAUCAGGUGAGCACUAAA [#SwitchBubble 13 #K4Early],394,507,502,447,359
UGAUAGGACAGAAGGAGCGGAAUGCUGUCCAAAAGGACAGCAAAUAUAACAGGAGUGAUGUUCCAGGUAGGUCGCUGUCCUAUCU [ArgBX 21 #SwitchBubble #StaticStem],246,197,214,199,187
UUAAUUCCGGUGGUGUGUAGAACACAGUUACGAGGACCGGUACGGCCGCCACUCGGAUGCACUUUCAGUGAUGUUGAAAGCAUCA [Same State Tryptophan A GF 1],670,514,643,498,690
GCCGUACGCAUGGAUACCAGCGCUCGUCACCUAGCAGUGAUGUUGCUAAUGCCACGAGGACGCCCUUGGCAGCCAUGCGUACGGC,116,101,102,83.3,107
CCAUCGCUAUUCGAUACCAGUCAUCAAAUCUUUGGUUUGAUAAAGGAGUGAUGUUCCCAAGACCCUUGGCAGCGAAUAGUGAUGG [Theophylline B K4 10],252,212,224,175,230
GGUUCUGUUUUAGGUUUAGUGAUGUUGAAUCGAGGACCGGUACGGCCGCCACUCGGUGACGUCGUAACUUUGGAGGUCCUAACCA [theeternabot_exclusion_KL_Trp_A_47],764,642,665,658,438
CGUUCCUCUGUCGAUACCAGCUUCAGUUGGCGGCCAGUGAUGUUGGUAUCGCCGAUGCCAAGCCCUUGGCAGCGACAGGAGACCC [Usleanza],155,165,211,95,163
AAGGACGGGACUUCCUCGCCGGAUAGAGAUACCAGCCCAGCAAUGGGCCCUUGGCAGCUCACUGACCUCAGUGAUGUUGAGGUUC [Arange],289,203,240,193,210
UGAUACCAGACUGAUACCAGCAGUGAUGUUGCUGAAAAUAAUAAAUGAGUCAAAGACUCGGGCCCUUGGCAGCAGUCUGGUAUCU [TheoBX 8 #SwitchBubble #StaticStem],111,114,116,117,95.9
GCUAUGGUAGGAAGGAGCGCGGACGAUAUUUAUCGAGUGAUGUUCGAUUAAUUAAUUUUAACGCAGGUAGGUCGCCUACUAUAGC [Arginine B K4 28],135,82.2,105,88.2,106
AGGCACGAGCAAGGAUAUCGAGUAGAGUGAUGUUCUGCCUGGGUUGGCGCGGAAGGGCCUUCCCAGCGAGAAGGUGCUCGUGCCU [#2 Same State - FMN A Attempt #10 (HarryS)],293,569,838,615,786
GCCGUAGAUGGAAGGAGCGUGAAUGGCCUCUAUCCAAAGUGAUGUUUUGUUGAAGACUGUUCACAGGUAGGUCGCCAUCUACGGC,165,125,135,135,140
CUUCAGAUCUGAAGGAGCGCGUUACCAGAAUGCAUCAUAGAGCAGUGAUGUUGCUCUGGAUCGCAGGUAGGUCGCAGAUCUGACG [Arg B Ex t7b],196,189,189,156,195

Sequence,apparent KD of K4 kissing-loop reporter (input ligand: FMN 200 uM) [nM],apparent KD of K4 kissing-loop reporter (input ligand: arginine 13.2 mM) [nM],apparent KD of K4 kissing-loop reporter (input ligand: none) [nM],apparent KD of K4 kissing-loop reporter [1] [nM],apparent KD of K4 kissing-loop reporter [2] [nM]
AAGUGAUGUUGUAGUGAUGUUGUGAUGUUGCAGGAUAUAUAGUGAUGUAGAAGGGUAAGUACUGAUUUUUUUUGUGAGUGAUGUU [bbgvzrmullin],87.9,41.6,75.9,54.1,71.4
CGUAGCAGACGAAGGAGCGGCUACCUGAAUCAGGGUGAUGCCUGAGUGAUGUUCAGGUAAAGCCAGGUAGGUCGCGUCUGCUACG [Arg B Ex t9a],201,203,232,235,210
ACUUGAGCACAAAGCACACCAAGCAGUAGGUAGGAUAUCCGGCUUAGGAGAAGGACCAUGCAGUGAUGUUGCAUGCUCCUCCAUG [Onraordi],267,94.7,101,102,93
UGUCAUUGGUCGGCCGCCACUUCAUGUAGAGUGAUGUUCUGUAGGACGGAUCGAAAGAUCUGUCGAAGGACCGGGACCGAUGACU [FiskerMod 14 - Jieux - Same State - Tryptophan B],818,725,1180,727,272
AUUUUGAGUGAUGUUCAUAUCUAUUCUGAAGGAGCGCUAAAUAAGGCAGGUAGGUCGCGGAAUAUAUAUAUAUAUAUAUAUAUAU [KL-SSArg-A30],538,809,711,624,537
UGGAGGAGUGAUGUUCCCGAAACAUGAGAUACCAGCGUCACAGUCCGCCCUUGGCAGCUCGGUCCAAUUUGCCUCGCGGGUAAUG [theeternabot_sameState_KL_Theo_A_23],244,251,299,257,182
UGAUACCAGACUGAUACCAGCUAGUGAUGUUAGCUGAUCUAAGGACCGUCAAAGACGGCUAGCCCUUGGCAGCAGUCUGGUAUCU [TheoBX 13 #SwitchBubble #StaticStem],120,105,121,130,121
AUUAAUUUCAGAGGAUAUCGUGAUUUUAUUUAAUUUAUUCAUUUGUGCAGUGAUGUUGCUAAUAUUCGAGAAGGCUGAUUUAUAA [whbob_Ex_FMNB__2th224],107,109,46.2,110,44.9
AUUUUCAAUUUAUUAUAUAACUUUUCAGAAGGAGCGUGGAAGUUCACAGGUAGGUCGCUGAAUAUAGGACUAGUGAUGUUAGUUA [JR_Nu_SSArginiA_Sub023],284,247,279,268,258
CCUGCAGCUGUUACCGAGGGAUGCUACGGACGAGGACCGGUACGGCCGCCACUCGCCAGUGAUGUUGGUGAGGGAGGACGUUACU [KL-XTryp-A21],137,107,109,103,107
CAACAGCUUACGGCCGCCACUCCUUUAUAUGGUGCGCACCGUUGAGCUCUAGUGAUGUUGGUGCCGAGGACCGGGUAGGAAAGUA [theeternabot_sameState_KL_Trp_B_31],468,245,331,448,412
AUAUUGGUUGAGAGUGAUGUUCCUUGUGUUCGAGGACCGGUACGGCCGCCACUCGGGUAGAAAAUAAAAGAUAUGUUUGAUUUUU [BDazzled - #12 SS Tryptophan A],162,29.1,242,943,279
AAGAAUAAUCUUGCAGUGAUGUUGCAAGAUACCAGCAUCGAAAGAUGCCCUUGGCAGCUUGAAACUGCAAGAAUCAAGCUGAAUA [Design1],150,131,140,145,137
GGAUAGGACAGAGGAUAUGGUAGUGAUGUUACCAAACUGGUUACUCUUGUCAGAAAACUGGCAUUUCCAGAAGGCUGUCCUAUCG [KL-XFMN-B11],599,75.1,92.2,84.9,104
UGACUGGAUUGAAGGAGCGCUAAACUCCUAGUGAUGUUAGGGAAACAAGACAAAGUCUUGAGGCAGGUAGGUCGCAAUCUAGUCU [FiskerMod 4 - Jieux - Same State - Arginine B],182,149,173,234,175
UGUACCGAGUCAGGAUAUGGCGUCGAAAGACGAAUCUUAGUGAUGUUAGGGAUCUGCGAAAGCAGUUCAGAAGGGACUUGGUACU [FmnBS 26 U37+U67],349,427,506,556,515
CCAUCGCUAUUCGAUACCAGCUACUUAGUGAUGUUAAGUUAAAAUCAAUUGUAGAUUGAAAGCCCUUGGCAGCGAAUAGUGAUGG [Theophylline B K4 21],157,123,139,83.8,135
UGAUACCAGACGGCCGCCACUCCCGUAAGUCAAAGACUUACGAAGAGAGUUGUCCAGUGAUGUUGGAGGACCGGGUCUGGUAUCU [FiskerMod 13 - Jieux - Exclusion - Tryptophan B],230,208,207,202,260
UGUACCGAGUCAGGAUAUGUCGUCGAAAGACGAAUCCUAGUGAUGUUAGGGAUCUGCGAAAGCAGUGCAGAAGGGACUUGGUACU [FmnBS 26 U20+G67],235,182,216,226,207
AACGUUUUGAGAAGGAGCGCGUUAAGCAGUGAUGUUGCUGUAUUUUAUCCAAUUCAUAUAUCGCAGGUAGGUCGCUCAAUACGUA [JR_Nu_SSArginiB_Sub027],574,496,557,534,432
UGAUACCAGACUGAUACCAGCCAGUGAUGUUGGCUAAUCCAAGAAGGAGUCAAAGACUCCGGCCCUUGGCAGCAGUCUGGUAUCU [TheoBX 3 #SwitchBubble #StaticStem],117,104,111,110,109
